These results are taken from publication PMC4990422, “Coupling between the DEAD-box RNA helicases Ded1p and eIF4A” (eLife, 2016).

The target in assay [1] is T1, eIF4G (S. cerevisiae, UniProt P39935 1-952; P07260 1-213).
T1 construct: eIF4G1, scaffolding protein of translation initiation, S. cerevisiae; present in the preparations of eIF4G; the model treats G as one unit; also called eIF4G1; S•Tag-eIF4G; source: recombinant, expression and purification previously described (Hilliker et al., 2011)
T1 sequence (looked up) 1: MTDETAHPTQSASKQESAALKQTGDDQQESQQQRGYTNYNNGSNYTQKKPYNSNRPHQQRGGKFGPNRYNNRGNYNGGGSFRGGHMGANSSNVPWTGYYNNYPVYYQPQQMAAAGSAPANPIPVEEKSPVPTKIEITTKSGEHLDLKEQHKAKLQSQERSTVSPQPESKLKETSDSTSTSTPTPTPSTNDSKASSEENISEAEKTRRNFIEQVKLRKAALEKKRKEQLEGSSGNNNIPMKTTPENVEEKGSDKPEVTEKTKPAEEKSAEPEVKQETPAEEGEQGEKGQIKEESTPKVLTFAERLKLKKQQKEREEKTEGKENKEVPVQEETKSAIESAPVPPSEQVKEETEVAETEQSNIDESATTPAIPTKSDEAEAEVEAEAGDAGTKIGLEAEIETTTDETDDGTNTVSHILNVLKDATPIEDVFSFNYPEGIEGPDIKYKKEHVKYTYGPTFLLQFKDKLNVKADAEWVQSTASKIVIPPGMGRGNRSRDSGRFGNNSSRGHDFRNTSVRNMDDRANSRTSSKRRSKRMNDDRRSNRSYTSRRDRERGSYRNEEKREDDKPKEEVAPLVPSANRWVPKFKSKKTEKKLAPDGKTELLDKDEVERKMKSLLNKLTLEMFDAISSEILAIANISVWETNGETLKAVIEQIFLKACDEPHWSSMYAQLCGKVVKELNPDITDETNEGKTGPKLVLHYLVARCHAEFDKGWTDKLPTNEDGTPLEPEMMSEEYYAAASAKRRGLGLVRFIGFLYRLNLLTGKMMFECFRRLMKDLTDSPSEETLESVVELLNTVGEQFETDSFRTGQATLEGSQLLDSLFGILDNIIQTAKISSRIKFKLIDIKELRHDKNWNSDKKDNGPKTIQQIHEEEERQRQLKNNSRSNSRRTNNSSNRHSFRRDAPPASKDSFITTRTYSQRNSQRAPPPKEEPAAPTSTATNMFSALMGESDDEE
T1 sequence (looked up) 2: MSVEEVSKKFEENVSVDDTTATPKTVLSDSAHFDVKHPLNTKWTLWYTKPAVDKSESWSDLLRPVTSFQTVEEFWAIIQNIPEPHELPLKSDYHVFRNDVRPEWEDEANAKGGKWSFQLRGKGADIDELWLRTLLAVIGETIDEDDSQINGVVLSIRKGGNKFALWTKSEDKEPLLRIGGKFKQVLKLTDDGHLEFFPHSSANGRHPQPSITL
The assay is described as follows: global fit of RNA unwinding time courses to a thermodynamic model; K1/2 of a binding step calculated with the model of Figure 4A; step without RNA, ATP bound to eIF4A. Particulars: both partners purified.

Assay [2] addresses T2, Ded1p-eIF4G complex (S. cerevisiae, UniProt P06634 1-604; P39935 1-952; P07260 1-213).
T2 construct: Ded1p, S. cerevisiae, wild type, as Wm1; eIF4G1, S. cerevisiae, as in Wm3; eIF4E, S. cerevisiae, as in Wm3; present in the preparations of eIF4G; State of the thermodynamic model; also called DG; DTG; source: formed from the purified recombinant proteins; copies: + +
The assay is described as above. Particulars: both partners purified.

Assay [3] concerns the target T1, eIF4G. Description: global fit of RNA unwinding time courses to a thermodynamic model; K1/2 of a binding step calculated with the model of Figure 4A; RNA bound to the binder before the step, no ATP. Conditions: both partners purified.
Assay [4] addresses T2, Ded1p-eIF4G complex. The assay is described as above. Particulars: both partners purified.
For assay [5], the target named is T2, Ded1p-eIF4G complex. Description: global fit of RNA unwinding time courses to a thermodynamic model; K1/2 of a binding step calculated with the model of Figure 4A; RNA bound to the binder before the step, ATP bound to Ded1p. Conditions: both partners purified.
Assay [6] concerns the target HA-tagged Ded1p (His6-Ded1p-HA3) (S. cerevisiae), P06634. The assay is described as follows: pull-down; Ded1p-HA held on anti-HA antibody and Protein G Dynabeads; 300 nM S•Tag-eIF4G or 1500 nM eIF4A added alone; 20 µg/mL RNases A,B; 8°C overnight; washed with HRB-Na100 buffer; Western blot. Particulars: remark: other sources report otherwise. In general terms: In western blotting, separated proteins are transferred to a membrane and probed.

T2 sequence (P06634 whole entry, one chain of several): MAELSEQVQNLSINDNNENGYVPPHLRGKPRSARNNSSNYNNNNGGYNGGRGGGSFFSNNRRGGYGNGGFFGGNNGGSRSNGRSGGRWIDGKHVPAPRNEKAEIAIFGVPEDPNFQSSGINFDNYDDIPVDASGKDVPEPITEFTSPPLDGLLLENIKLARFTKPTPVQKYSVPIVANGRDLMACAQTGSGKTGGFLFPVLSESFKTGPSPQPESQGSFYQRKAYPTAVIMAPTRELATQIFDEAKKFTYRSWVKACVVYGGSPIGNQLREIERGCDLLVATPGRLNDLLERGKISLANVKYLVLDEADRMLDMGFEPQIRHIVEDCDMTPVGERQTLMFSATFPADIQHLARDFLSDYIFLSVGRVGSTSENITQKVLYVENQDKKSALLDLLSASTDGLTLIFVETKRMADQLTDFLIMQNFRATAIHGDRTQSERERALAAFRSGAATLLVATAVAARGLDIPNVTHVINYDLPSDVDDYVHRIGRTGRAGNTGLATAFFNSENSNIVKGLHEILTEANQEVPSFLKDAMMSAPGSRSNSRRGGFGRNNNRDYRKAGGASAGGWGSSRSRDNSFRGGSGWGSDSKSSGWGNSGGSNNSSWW
HA-tagged Ded1p (His6-Ded1p-HA3) (S. cerevisiae), P06634, sequence (P06634 whole entry): as the sequence (P06634 whole entry, one chain of several) above

B1: eIF4A (enzyme, S. cerevisiae, UniProt P10081 1-395, looked up)
chain: MSEGITDIEESQIQTNYDKVVYKFDDMELDENLLRGVFGYGFEEPSAIQQRAIMPIIEGHDVLAQAQSGTGKTGTFSIAALQRIDTSVKAPQALMLAPTRELALQIQKVVMALAFHMDIKVHACIGGTSFVEDAEGLRDAQIVVGTPGRVFDNIQRRRFRTDKIKMFILDEADEMLSSGFKEQIYQIFTLLPPTTQVVLLSATMPNDVLEVTTKFMRNPVRILVKKDELTLEGIKQFYVNVEEEEYKYECLTDLYDSISVTQAVIFCNTRRKVEELTTKLRNDKFTVSAIYSDLPQQERDTIMKEFRSGSSRILISTDLLARGIDVQQVSLVINYDLPANKENYIHRIGRGGRFGRKGVAINFVTNEDVGAMRELEKFYSTQIEELPSDIATLLN
notes: eIF4A, DEAD-box RNA helicase, S. cerevisiae, wild type; also called wild-type yeast eIF4A; source: recombinant, purified as described (Hilliker et al., 2011)
Regarding B1, the Kd (in general, the free concentration of one partner at which half of the binding sites on the other are occupied at equilibrium, for simple one-to-one binding) was 1000 nM in the assay with eIF4G [1]; 0.28 nM with Ded1p-eIF4G complex [2]; 25 nM with eIF4G [3]; 0.003 nM with Ded1p-eIF4G complex [4]; 0.006 nM in the assay with Ded1p-eIF4G complex [5]. Further, the relative band intensity (pull-down compared to input) in assay [6] was found to be 96%.
